Experimental data published in patent US20240301052A1 (LANOVA MEDICINES DEVELOPMENT, published 2024).
Changes are numbered by the printed parent chain. “And” between values parts separate entries of the source, which are not always exact repeats. Equal entries are not always repeated. Where two headings read alike, the source gives them in different places. Each block holds one binder with its values, some of them ahead of it.

Columns and labels:
[1] = target: T1, human SLC34A2 (human, UniProt O95436 1-690); assay: FACS, OVCAR3 cells
T1 construct: whole, on cells; also called human solute carrier 34 A2; NaPi2b
T1 sequence (looked up): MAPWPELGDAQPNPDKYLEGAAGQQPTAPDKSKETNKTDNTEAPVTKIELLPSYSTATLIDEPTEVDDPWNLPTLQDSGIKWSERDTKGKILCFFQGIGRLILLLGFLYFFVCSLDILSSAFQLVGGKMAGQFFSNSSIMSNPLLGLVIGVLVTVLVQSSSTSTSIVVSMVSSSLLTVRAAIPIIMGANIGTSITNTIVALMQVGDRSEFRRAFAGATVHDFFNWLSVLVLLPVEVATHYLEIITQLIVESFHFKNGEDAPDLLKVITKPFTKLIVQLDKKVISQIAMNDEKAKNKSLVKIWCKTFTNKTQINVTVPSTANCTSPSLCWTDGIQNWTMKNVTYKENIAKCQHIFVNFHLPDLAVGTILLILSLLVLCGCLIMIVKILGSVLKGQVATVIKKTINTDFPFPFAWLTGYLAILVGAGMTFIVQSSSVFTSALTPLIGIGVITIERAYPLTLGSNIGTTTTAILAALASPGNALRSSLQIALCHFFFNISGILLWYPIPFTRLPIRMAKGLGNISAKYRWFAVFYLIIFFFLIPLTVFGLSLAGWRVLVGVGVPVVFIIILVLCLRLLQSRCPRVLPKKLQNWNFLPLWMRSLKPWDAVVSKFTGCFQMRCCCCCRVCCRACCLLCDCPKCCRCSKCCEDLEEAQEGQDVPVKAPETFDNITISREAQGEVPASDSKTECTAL
Protocol: The binding of these humanized antibodies to OVCAR3 cells was evaluated as described above, and the results are shown in FIG. 12A-D and Tables 16A-D.

[2] = target: T1, human SLC34A2; assay: FACS, RMG-1 cells
Method in brief: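 Flow-cytometric binding of chimeric antibodies (8-point, 4-fold dilutions from 200 nM) to RMG-1 cells, 60 min at 4° C, followed by fluorescent secondary antibody for 30 min at 4° C.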

[3] = target: T1, human SLC34A2; assay: FACS, OVCAR3 cells
[4] = target: T1, human SLC34A2; assay: FACS, HEK293/human SLC34A2 cells
[5] = target: T1, human SLC34A2; assay: FACS, OVCAR3 cells; remark: listed apart in the source
[6] = target: T1, human SLC34A2; assay: FACS, OVCAR3 cells; remark: listed apart in the source
[7] = target: T1, human SLC34A2; assay: FACS, HEK293/human SLC34A2 cells; remark: listed apart in the source
[8] = target: T1, human SLC34A2; assay: FACS, RMG-1 cells
[9] = target: T1, human SLC34A2; assay: FACS, RMG-1 cells; remark: listed apart in the source
[10] = target: T1, human SLC34A2; assay: FACS, OVCAR3 cells; remark: listed apart in the source
[11] = target: T1, human SLC34A2; assay: FACS, RMG-1 cells; remark: listed apart in the source
[12] = target: T2, Rhesus SLC34A2 (Rhesus, UniProt F7HDA3 1-690); assay: FACS, HEK293/Rhesus SLC34A2 cells
T2 construct: whole, on cells
T2 sequence: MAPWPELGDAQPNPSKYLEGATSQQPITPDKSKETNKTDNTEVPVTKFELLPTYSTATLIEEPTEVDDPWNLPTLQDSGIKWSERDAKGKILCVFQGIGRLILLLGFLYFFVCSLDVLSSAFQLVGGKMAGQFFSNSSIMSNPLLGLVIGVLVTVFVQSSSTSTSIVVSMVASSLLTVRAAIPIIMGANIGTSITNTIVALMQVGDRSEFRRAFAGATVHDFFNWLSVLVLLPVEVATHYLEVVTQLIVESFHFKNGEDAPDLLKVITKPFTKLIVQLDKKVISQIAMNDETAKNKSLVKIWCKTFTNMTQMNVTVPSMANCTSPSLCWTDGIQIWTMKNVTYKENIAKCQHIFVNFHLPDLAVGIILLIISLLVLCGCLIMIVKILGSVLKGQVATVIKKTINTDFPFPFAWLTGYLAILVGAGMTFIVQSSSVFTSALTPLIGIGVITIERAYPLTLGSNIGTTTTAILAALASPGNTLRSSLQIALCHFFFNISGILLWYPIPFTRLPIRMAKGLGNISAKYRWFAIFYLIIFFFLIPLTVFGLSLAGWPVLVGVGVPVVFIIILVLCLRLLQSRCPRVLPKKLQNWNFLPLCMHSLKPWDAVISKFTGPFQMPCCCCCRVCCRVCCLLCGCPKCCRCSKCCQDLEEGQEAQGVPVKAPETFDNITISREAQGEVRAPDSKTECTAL

[13] = target: Cynomolgus SLC34A2 (Cynomolgus); assay: FACS, cells expressing Cynomolgus SLC34A2
[14] = target: T1, human SLC34A2; assay: FACS, OVCAR3 cells; remark: listed apart in the source
[15] = target: T2, Rhesus SLC34A2; assay: FACS, HEK293/Rhesus SLC34A2 cells; remark: listed apart in the source
[16] = target: T1, human SLC34A2; assay: FACS, OVCAR3 cells; remark: listed apart in the source
[17] = target: T1, human SLC34A2; assay: FACS, OVCAR3 cells; remark: listed apart in the source

B1: 30H9B8F9.p1.z5 hIgG1 (antibody, V domains shown)
VH: QVQLVQSGAEVKKPGASVKVSCKTSGYTFTTNNMHWVRQAPGQGLEWIGAIYPGSGATAYNQKFKGRVTMTADTSTSTVYMELSSLRSEDTAVYYCARGMYGHGAMDYWGQGTLVTVSS
VL: DIQLTQSPSFLSASVGDRVTITCKASQDVGTAVAWYQQKPGKAPKLLIYWATTRHSGVPSRFSGSGSGTEFTLTISSLQPEDFATYYCQQYSSNPLTFGQGTKLEIK
notes: humanized hIgG1
EC50 [1]: 1.43 nM
Top (MFI) [1]: 26900 MFI

B4: 62G10E4G8.p3.z15 hIgG1 (antibody, V domains shown)
VH: QVQLVQSGAEVVKPGASVKMSCKASGYTFPSYITHWVKQAPGQGLEWIGAIYPGNADTSYIQKFKGRATLTADKSTSTAYMELSSLRSEDTAVYYCARGTYGTSAWFTYWGQGTLVTVSS
VL: EIVLTQSPATLSVSPGERATLSCRARQNIGNNLYWYQQKPGQSPRLLIKYASQSISGIPSRFSGSGSGTDFTLTISSLQSEDFAVYFCQQSFSWPLTFGQGTKLEIK
notes: humanized hIgG1
EC50 [1]: 3.76 nM
Top (MFI) [1]: 27300 MFI

B6: 91C9F1.p1.z7 hIgG1 (antibody, V domains shown)
VH: QVQLVQSGAEVKKPGSSVKVSCKTSGFFFTEYIIHWVRQAPGQGLEWIGGIIPNNDVTNYKQNFRGRVTLTADKSTSTAYMELSSLRSEDTAVYYCARWRNAYYSAMDSWGQGTTVTVSS
VL: DIQVTQSPSSLSTSVGDRVTITCTASQDVGTAVAWYQQKPGKSPKLLIYWASTRHTGVPERFTGSGSGTDFTLTISSVQPEDVATYFCQQYRTSPLTFGVGTKVEIK
notes: humanized hIgG1
EC50 [16]: 1.67 nM
Top (MFI) [16]: 37400 MFI

B7: 63A11D5B4.p1.z9 hIgG1 (antibody, V domains shown)
VH: QVQLVQSGAEVVKPGASVKMSCKTSGYTFITYNMHWVRQAPGQGLEWIGAIYPGSGDTSYNQKFKGRVTLTADKSTSTAYMELSSLRSEDTAVYYCSISTIITTGAVDYWGQGTLVTVSS
VL: DIQMTQSPSSLSASVGDRVTITCKASQDVGTAVAWYQQKPGKVPKLLIYWTSTRHTGVPSRFSGSGSGTDFTLTISSLQPEDVATYYCQQYSRIPLTFGGGTKVEIK
notes: humanized hIgG1
EC50 [17]: 9.12 nM
Top (MFI) [17]: 26500 MFI

The remaining lines, values ahead:

EC50 [2]: 0.99 nM
Top (MFI) [2]: 9470 MFI
EC50 [1]: 1.19 nM
Top (MFI) [1]: 29300 MFI
B2: xi30H9B8F9 hIgG1 (antibody, V domains shown)
VH: QVQLQQPGAELVKPGASVKMSCKTSGYTFTTNNMHWVKQTPGQGLEWIGAIYPGNGATAYNQKFKGKATLTADKSSSTAYMQLSSLTSEASAVYYCARGMYGHGAMDYWGQGTSVIVSS
VL: DIVMTQSHKFMSRSVGDRVRITCKASQDVGTAVAWYQQKPGQSPKLLIYWATTRHSGVPDRFTGSGSGTDFIFTISNVQSEDLADYFCQQYSSNPLTFGAGTKLELK
notes: chimeric, hIgG1

EC50 [3]: 3.8 nM
Top [3]: 29000 MFI
Top (MFI) [3]: 58400 MFI
EC50 [4]: 2.68 nM
Top [4]: 32400 MFI
EC50 [5]: 6.82 nM
EC50 [6]: 2.68 nM
Top (MFI) [6]: 32400 MFI
EC50 [7]: 2.5 nM
Top (MFI) [7]: 27700 MFI
EC50 [8]: 7.17 nM
Top [8]: 9940 MFI
EC50 [9]: 4.87 nM
Top (MFI) [9]: 9110 MFI
EC50 [10]: 10.3 nM
Top [10]: 22500 MFI
EC50 [11]: 7.2 nM
EC50 [12]: 5.8 nM
Top (MFI) [12]: 27000 MFI
EC50 [13]: 3.72 nM
EC50 [14]: 4.31 nM and 3.99 nM
Top (MFI) [14]: 40200 MFI and 26700 MFI
EC50 [15]: 2.54 nM
Top (MFI) [15]: 11900 MFI
B3: XMT-1536 (antibody, INN chains, looked up, V domains shown)
VH: QVQLVQSGAEVVKPGASVKMSCKASGYTFTGYNIHWVKQAPGQGLEWIGAIYPGNGDTSYKQKFRGRATLTADTSTSTVYMELSSLRSEDSAVYYCARGETARATFAYWGQGTLVTVSS
VL: DIQMTQSPSSLSASVGDRVTITCSASQDIGNFLNWYQQKPGKTVKVLIYYTSSLYSGVPSRFSGSGSGTDYTLTISSLQPEDFATYYCQQYSKLPLTFGQGTKLELK
modifications: rilsodotin auristatin payload

EC50 [2]: 3.65 nM
Top (MFI) [2]: 9370 MFI
EC50 [1]: 3.73 nM
Top (MFI) [1]: 27600 MFI
B5: xi62G10E4G8 hIgG1 (antibody, V domains shown)
VH: B4 VH with V5Q, A40T, A56G, R67K, T76S, E82Q, R87T, T91S, S120A
VL: DIVLTQSPATLSVTPGDSVSLSCRARQNIGNNLYWYQQKSHESPRLLIKYASQSISGIPSRFSGSGSGTDFTLTINSVETEDFGVYFCQQSFSWPLTFGAGTKLELK
notes: chimeric, hIgG1

EC50 [2]: 1.3 nM
Top (MFI) [2]: 9230 MFI
EC50 [16]: 1.77 nM
Top (MFI) [16]: 32100 MFI
B8: xi91C9F1 hIgG1 (antibody, V domains shown)
VH: EVQLQQSGPELVKPGTSVKISCKTSGFFFTEYIIHWVKQSHGRSLEWIGGIIPNNGVTNYKQNFRGKAALTADKSSNTAYMELRSLTSEDSAVYYCARWRNGYYSAMDSWGQGTSVTVSS
VL: DIVVTQSHKFMSTSLGDRVSITCTASQDVGTAVAWYQQKPGHSPKLLIYWASTRHTGVPERFTGSGSGTDFTLTITNVQSEDLADYFCQQYRTSPLTFGVGTKLELK
notes: chimeric, hIgG1

EC50 [2]: 5.32 nM
Top (MFI) [2]: 9770 MFI
EC50 [17]: 10.5 nM
Top (MFI) [17]: 32100 MFI
B9: xi63A11D5B4 hIgG1 (antibody, V domains shown)
VH: QVQLQQPGAELVKPGASVKMSCRTSGYTFITYNMHWVKQTPGQGREWIGAIYPGNGDTSYNQKFKGKATLTADKSSSTAYMQLNSLTSEDSAVYYCSISTIITTGAVDYWGQGTSVTVAS
VL: DIVMTQSHKFMSTSVGDRVSITCKASQDVGTAVAWYQQKAGQSPKLLIYWTSTRHTGVPDRFTGSGSGTDFTLIIRSLQSEDLADYFCQQYSRIPLTFGSGTKLEIK
notes: chimeric, hIgG1
